Measured values from paper PMC6443809, “Integrin activation by the lipid molecule 25-hydroxycholesterol induces a proinflammatory response” (Nature Communications, 2019).

Columns and labels:
[1] = target: purified human αvβ3 integrin protein (human) (UniProt P06756); assay: radioligand binding; modified ELISA-type competitive assay: αvβ3 integrin coated on 96-well plate (200 ng/well in PBS with 1 mM MnCl2, 16 h, 4 °C); fractalkine-CD (1000 ng/well in HEPES-Tyrodes buffer) or water added 2 h at room temperature, washed; then 3H-25HC in PBS/0.5% BSA 16 h at 4 °C; bound radioactivity counted
[2] = target: T1, αvβ3 integrin (Homo sapiens, UniProt P05106+P06756); assay: SPR (Biacore […], immobilized αvβ[…]); also 3H-25HC binding with fractalkine-CD competition and biotin-25HC pull-down
T1 construct: gene ITGAV; Purified human αvβ3 integrin protein; with integrin αv subunit (ITGAV)

[3] = target: collagen-I (Homo sapiens) (UniProt P02452); assay: SPR; conditions: cited from earlier work
[4] = target: vitronectin (Homo sapiens) (UniProt P04004); assay: SPR; conditions: cited from earlier work
[5] = target: phospholipase A2 (Homo sapiens) (UniProt P14555); assay: SPR; conditions: cited from earlier work
[6] = target: IGF1 (Homo sapiens) (UniProt P05019); assay: SPR; conditions: cited from earlier work

**Q.** For “purified chemokine domain (CD) of recombinant human fractalkine protein (from UniProt P78423 25-397) (domain or fragment)”, which loss of 3H-25HC binding to immobilised αvβ3 integrin after pre-incubation with fractalkine-CD [1] is on record?
**A.** > 60%

**Q.** Which Kd [2] does the source give for `C[C@H](CCCC(C)(C)O)[C@H]1CC[C@H]2[C@@H]3CC=C4C[C@@H](O)CC[C@]4(C)[C@H]3CC[C@]12C` [25HC, 25-hydroxycholesterol] here?
**A.** 10.9 nM

**Q.** With α1β1 integrin (from UniProt P56199) as the compound, how does the Kd [3] read?
**A.** 24 nM

**Q.** Which Kd [4] does the source give for αvβ3 integrin (from UniProt P06756) here?
**A.** 64 nM

**Q.** And the Kd [5]?
**A.** 211 nM

**Q.** And the Kd [6]?
**A.** 31 nM
